Measured values: the supplement of paper PMC10065799, “High-throughput profiling of sequence recognition by tyrosine kinases and SH2 domains using bacterial peptide display” (eLife, 2023)

What was measured:
[1] = target: SHP2-C SH2; assay: SH2 binding enrichment of the phosphorylated peptide, bacterial display (enrichment ratio); higher = better substrate or ligand; peptides without Tyr show the background
[2] = target: c-Src SH2; assay: as above
[3] = target: Grb2 SH2 (UniProt P62993); assay: as above
[4] = tested on: c-Src; assay: phosphorylation enrichment, bacterial display (enrichment ratio); higher = better substrate or ligand; peptides without Tyr show the background
[5] = target: FGFR3 (UniProt P22607); assay: as above
[6] = target: MERTK (UniProt Q12866); assay: as above
[7] = target: Fes (UniProt P07332); assay: as above
[8] = target: Jak2 (UniProt O60674); assay: as above
[9] = target: EPHB1 (UniProt P54762); assay: as above
[10] = tested on: AncSZ; assay: as above
[11] = tested on: Fer (mouse); assay: as above
[12] = target: Fyn (UniProt P06241); assay: as above
[13] = tested on: c-Abl (mouse); assay: as above
[14] = target: FGFR1 (UniProt P11362); assay: as above
[15] = target: EPHB2 (UniProt P29323); assay: as above
[16] = target: Hck (UniProt P08631); assay: as above
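Wherever SH2 binding enrichment of the phosphorylated peptide, bacterial display is given: peptide library displayed on the E. coli surface as eCPX fusions, selected cells deep-sequenced, score is each peptide's frequency after selection divided by its frequency in the input.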
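Wherever phosphorylation enrichment, bacterial display is given: 11-residue human phosphosite peptides and single-mutation variants displayed on the E. coli surface, counted by deep sequencing, each peptide's frequency after selection divided by its frequency in the unselected input library; frequency after pTyr selection over input frequency; kinase dosed for 20-30% of maximal phosphorylation in three min.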

Sequence of FGFR1 (P11362 whole entry, looked up): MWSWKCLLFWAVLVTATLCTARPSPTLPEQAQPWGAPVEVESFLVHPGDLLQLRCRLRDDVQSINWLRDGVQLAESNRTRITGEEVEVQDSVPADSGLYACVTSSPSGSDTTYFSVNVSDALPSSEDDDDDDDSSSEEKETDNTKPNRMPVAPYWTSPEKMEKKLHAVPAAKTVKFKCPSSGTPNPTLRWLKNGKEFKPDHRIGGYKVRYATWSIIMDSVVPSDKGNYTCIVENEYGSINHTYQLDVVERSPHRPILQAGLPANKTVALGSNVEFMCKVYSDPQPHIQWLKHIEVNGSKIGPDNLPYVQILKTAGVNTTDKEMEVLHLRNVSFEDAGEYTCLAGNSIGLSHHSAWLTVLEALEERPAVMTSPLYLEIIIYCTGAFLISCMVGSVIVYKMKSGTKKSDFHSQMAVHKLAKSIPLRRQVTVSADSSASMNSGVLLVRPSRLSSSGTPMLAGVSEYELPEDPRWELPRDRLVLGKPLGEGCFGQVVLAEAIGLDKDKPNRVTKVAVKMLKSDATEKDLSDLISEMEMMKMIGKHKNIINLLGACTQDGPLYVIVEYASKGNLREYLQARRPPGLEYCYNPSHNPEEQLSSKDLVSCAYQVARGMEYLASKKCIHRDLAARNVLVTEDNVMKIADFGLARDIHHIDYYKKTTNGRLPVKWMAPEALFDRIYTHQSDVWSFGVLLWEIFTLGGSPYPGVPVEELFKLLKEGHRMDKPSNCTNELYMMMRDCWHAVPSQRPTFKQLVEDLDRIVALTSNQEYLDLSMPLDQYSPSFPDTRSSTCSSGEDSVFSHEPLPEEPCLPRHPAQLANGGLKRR
Sequence of MERTK (Q12866 whole entry, looked up): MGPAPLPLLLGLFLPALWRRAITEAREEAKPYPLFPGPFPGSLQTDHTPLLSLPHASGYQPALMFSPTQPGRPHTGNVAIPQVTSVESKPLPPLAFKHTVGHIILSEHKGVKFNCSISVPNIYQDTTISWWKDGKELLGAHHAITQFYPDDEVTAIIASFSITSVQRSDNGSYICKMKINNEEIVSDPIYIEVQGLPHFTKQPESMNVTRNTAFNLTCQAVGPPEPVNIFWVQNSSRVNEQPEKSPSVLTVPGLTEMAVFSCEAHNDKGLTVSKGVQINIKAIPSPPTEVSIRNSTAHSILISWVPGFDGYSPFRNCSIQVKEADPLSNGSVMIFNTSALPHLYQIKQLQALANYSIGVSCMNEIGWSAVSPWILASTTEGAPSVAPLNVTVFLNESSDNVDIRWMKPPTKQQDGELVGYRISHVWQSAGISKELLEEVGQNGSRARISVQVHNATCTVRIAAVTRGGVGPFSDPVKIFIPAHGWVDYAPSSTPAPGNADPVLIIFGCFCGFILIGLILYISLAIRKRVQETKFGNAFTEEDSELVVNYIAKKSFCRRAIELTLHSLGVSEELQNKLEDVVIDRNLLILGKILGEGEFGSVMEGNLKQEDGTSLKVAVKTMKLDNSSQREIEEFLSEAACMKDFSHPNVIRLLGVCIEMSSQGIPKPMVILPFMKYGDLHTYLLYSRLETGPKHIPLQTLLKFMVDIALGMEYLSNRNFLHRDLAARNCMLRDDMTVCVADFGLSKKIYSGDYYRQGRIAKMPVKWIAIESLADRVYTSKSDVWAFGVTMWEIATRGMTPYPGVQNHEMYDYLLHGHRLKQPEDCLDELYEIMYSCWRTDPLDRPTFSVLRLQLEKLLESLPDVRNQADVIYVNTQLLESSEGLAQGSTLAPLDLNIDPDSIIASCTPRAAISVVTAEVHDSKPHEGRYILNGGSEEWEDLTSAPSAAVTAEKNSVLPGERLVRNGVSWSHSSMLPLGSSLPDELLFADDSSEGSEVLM
Sequence of Hck (P08631 whole entry, looked up, the tested form may be a part): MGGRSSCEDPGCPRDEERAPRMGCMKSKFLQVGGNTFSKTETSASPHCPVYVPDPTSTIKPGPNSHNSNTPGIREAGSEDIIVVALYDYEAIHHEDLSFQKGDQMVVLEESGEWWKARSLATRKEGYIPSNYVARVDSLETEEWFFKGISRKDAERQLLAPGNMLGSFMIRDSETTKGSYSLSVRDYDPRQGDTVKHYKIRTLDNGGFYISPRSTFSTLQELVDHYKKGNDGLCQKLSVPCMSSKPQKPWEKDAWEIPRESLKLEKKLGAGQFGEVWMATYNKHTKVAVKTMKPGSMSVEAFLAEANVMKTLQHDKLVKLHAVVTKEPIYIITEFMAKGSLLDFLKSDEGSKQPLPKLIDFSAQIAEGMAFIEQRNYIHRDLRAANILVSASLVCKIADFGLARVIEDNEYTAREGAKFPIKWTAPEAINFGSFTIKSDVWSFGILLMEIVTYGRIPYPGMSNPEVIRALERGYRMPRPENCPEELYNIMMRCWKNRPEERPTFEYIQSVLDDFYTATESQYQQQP
Sequence of Grb2 SH2 (P62993 whole entry, looked up): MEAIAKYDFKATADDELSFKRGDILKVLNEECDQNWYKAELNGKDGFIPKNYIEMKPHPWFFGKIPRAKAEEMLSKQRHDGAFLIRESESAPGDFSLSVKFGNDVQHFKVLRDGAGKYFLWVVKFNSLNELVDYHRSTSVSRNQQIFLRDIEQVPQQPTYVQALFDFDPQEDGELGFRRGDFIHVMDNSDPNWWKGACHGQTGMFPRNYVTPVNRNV
Sequence of Fyn (P06241 whole entry, looked up): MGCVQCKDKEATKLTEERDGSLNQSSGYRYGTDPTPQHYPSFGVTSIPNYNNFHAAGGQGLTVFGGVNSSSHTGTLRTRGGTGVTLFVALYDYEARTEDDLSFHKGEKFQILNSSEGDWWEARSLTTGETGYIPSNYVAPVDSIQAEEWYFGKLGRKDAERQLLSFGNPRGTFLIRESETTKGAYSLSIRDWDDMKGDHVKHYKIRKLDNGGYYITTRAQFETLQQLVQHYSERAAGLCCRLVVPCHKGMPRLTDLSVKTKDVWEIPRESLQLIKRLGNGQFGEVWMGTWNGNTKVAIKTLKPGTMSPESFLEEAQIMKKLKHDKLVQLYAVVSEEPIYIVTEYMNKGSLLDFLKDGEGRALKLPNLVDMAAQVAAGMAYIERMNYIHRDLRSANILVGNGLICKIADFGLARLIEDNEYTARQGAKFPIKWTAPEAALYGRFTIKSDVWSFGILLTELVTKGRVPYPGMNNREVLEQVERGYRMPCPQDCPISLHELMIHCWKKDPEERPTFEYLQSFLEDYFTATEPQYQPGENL
Sequence of EPHB1 (P54762 whole entry, looked up): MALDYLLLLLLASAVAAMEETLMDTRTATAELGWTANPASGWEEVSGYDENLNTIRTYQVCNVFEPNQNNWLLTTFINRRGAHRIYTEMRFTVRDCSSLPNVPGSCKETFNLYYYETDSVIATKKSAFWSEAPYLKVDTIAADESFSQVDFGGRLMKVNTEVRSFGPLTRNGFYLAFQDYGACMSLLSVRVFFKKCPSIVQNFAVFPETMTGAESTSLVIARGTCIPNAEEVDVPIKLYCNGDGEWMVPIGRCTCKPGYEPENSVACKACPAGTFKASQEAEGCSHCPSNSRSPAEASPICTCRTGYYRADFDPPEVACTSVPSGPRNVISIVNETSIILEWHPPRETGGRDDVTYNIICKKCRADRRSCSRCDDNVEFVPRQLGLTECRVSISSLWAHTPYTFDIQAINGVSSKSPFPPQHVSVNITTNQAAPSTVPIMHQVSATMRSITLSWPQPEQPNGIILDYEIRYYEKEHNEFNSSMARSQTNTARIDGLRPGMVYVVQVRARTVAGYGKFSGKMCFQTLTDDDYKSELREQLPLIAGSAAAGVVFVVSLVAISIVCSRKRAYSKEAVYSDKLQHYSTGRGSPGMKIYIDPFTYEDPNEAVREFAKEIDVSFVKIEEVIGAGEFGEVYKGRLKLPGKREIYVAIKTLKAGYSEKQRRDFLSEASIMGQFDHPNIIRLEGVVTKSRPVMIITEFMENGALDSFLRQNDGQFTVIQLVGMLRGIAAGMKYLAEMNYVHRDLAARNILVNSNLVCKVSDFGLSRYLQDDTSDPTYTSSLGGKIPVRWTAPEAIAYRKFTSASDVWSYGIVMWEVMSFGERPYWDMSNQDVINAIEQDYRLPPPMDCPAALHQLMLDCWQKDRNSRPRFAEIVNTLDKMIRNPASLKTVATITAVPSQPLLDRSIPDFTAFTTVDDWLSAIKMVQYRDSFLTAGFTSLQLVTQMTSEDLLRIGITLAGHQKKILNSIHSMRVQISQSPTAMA
Sequence of FGFR3 (P22607 whole entry, looked up): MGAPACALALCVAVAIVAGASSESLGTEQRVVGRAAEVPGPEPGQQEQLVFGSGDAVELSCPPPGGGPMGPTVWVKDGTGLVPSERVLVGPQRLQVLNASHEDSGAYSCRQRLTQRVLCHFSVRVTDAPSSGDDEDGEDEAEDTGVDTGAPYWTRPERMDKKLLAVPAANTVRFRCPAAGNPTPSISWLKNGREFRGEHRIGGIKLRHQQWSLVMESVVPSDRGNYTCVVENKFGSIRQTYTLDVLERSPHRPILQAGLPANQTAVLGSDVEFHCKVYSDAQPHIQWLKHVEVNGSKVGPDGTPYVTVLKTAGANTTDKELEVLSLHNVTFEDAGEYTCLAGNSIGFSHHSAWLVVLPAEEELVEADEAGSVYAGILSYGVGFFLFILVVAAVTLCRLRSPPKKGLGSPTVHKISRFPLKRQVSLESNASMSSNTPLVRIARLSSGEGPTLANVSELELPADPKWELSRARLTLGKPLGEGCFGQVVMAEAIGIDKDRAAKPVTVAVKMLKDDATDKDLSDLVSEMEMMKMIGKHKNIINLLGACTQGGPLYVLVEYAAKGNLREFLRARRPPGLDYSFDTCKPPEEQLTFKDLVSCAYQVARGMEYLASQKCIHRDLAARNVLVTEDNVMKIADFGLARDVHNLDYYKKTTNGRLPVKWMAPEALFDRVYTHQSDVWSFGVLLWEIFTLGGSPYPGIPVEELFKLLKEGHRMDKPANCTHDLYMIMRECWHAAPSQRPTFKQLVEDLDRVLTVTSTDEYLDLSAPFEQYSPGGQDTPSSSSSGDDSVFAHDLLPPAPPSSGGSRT

Sequence	SH2 binding enrichment [1]	SH2 binding enrichment [2]	SH2 binding enrichment [3]	phosphorylation enrichment [4]	phosphorylation enrichment [5]	phosphorylation enrichment [6]	phosphorylation enrichment [7]	phosphorylation enrichment [8]	phosphorylation enrichment [9]	phosphorylation enrichment [10]	phosphorylation enrichment [11]	phosphorylation enrichment [12]	phosphorylation enrichment [13]	phosphorylation enrichment [14]	phosphorylation enrichment [15]	phosphorylation enrichment [16]
LRRREYQRQDY [PRKRIP1_Y90]	0.727	0.435	0.76	0.565	0.683	0.541	0.64	0.289	0.706	0.841	0.504	0.706	0.554	0.532	0.786	0.621
SMGHRYIEVFR [HNRNPF_Y82_K87R]	1.33	3.04	0.936	0.367	0.506	0.474	0.691	0.688	0.451	0.622	0.483	0.335	0.514	0.53	0.576	0.453
EEGNPYYSSAR [MCCC2_Y520]	0.674	2.06	0.818	1.99	0.647	0.422	0.845	0.848	0.499	1.09	0.528	0.793	0.679	0.468	0.473	1.18
FGSVDCWEKFF [EEF1AKNMT_Y16_Y16C]	1.03	0.83	0.944	0.461	0.569	0.459	1.24	1.04	0.474	1.14	0.462	0.436	0.801	0.511	0.624	0.426
IFGVSYGEFRF [CFTR_Y512_D513G_YF]	1.08	0.705	1.06	5.39	0.646	0.465	1.09	0.99	0.576	0.941	0.504	5.32	0.779	0.383	0.561	4.06
KGYRGYSYDDI [TMEM230_Y110]	0.652	3.92	0.963	0.434	0.509	0.417	0.774	0.607	0.407	0.756	0.393	0.425	0.547	0.485	0.424	0.395
EVEFEYPFRLH [SYP_Y73]	0.899	0.755	0.892	0.588	0.724	0.396	1.37	1.5	0.564	1	0.489	0.336	0.735	0.42	0.584	0.509
RDLHTYIMPAH [PNMT_Y256_R254H]	0.504	1.27	0.609	0.631	1.04	0.601	1.24	0.957	0.754	1.61	0.564	1.19	0.878	0.982	0.725	0.748
LGLDECLDKLK [FMNL2_Y352_Y352C]	0.492	0.75	0.934	0.92	1.54	1.09	1.85	2.01	1.05	1.91	1.31	1.04	1.7	1.28	1.37	1.31
KFANSYRMEPL [TCTE3_Y87]	0.762	0.653	0.861	0.528	0.491	0.417	0.623	0.774	0.43	0.574	0.465	0.47	0.534	0.443	0.409	0.414
IIQRAYRRHLL [SCN1A_Y1926]	0.381	0.439	0.769	0.584	0.525	0.608	0.619	0.491	0.479	0.845	0.497	0.509	0.552	0.499	0.433	0.576
EFKDAYKFAAD [BRDT_Y335_YF]	0.779	0.459	0.7	0.447	0.524	0.492	0.731	0.638	0.367	0.647	0.408	0.414	0.459	0.414	0.491	0.429
KVGRVYLFLQP [ITGA2B_Y360_E355K]	0.724	0.48	0.843	0.362	0.768	0.391	1.2	0.983	0.558	1.02	0.492	0.375	0.75	0.404	0.522	0.462
MENFIYESMRY [CYP19A1_Y361]	0.553	0.627	0.819	6.18	0.728	2.31	3.6	0.839	5.46	1.23	13.1	8.43	1.25	0.569	3.32	6.76
RHSGSYFVTSV [APC_Y2838_L2839F]	0.499	0.547	0.787	0.785	0.565	0.676	0.845	0.89	0.517	0.895	0.444	0.598	0.741	0.574	0.654	0.591
FQNSLYAPDFS [FAM92A_Y226_R222Q_YF]	0.614	0.591	0.891	2.18	1.47	7.8	0.945	1.08	4.07	0.9	3.35	2.08	0.781	1.48	4.54	2.12
KDPPDYKFQPR [SOX9_Y172_H169P_YF]	0.791	0.609	0.928	0.43	0.527	0.461	0.789	0.719	0.343	0.811	0.449	0.439	0.626	0.427	0.44	0.414

Sequence	SH2 binding enrichment [1]	SH2 binding enrichment [2]	SH2 binding enrichment [3]	phosphorylation enrichment [4]	phosphorylation enrichment [5]	phosphorylation enrichment [6]	phosphorylation enrichment [7]	phosphorylation enrichment [8]	phosphorylation enrichment [9]	phosphorylation enrichment [10]	phosphorylation enrichment [11]	phosphorylation enrichment [12]	phosphorylation enrichment [13]	phosphorylation enrichment [14]	phosphorylation enrichment [15]	phosphorylation enrichment [16]
FGGRDYSLDEF [MYOF_Y1705_YF]	0.606	0.75	0.782	0.542	0.733	0.405	1.18	0.946	0.597	0.964	0.493	0.401	0.68	0.512	0.602	0.473
RNVFFYSFLLK [PTEN_Y178_Y174N_YF]	1.02	0.907	1.22	0.508	1.31	0.757	1.72	1.59	0.861	1.29	0.697	0.656	1.23	0.586	0.738	0.565
PSPMPYAFCQM [FOXL2_Y215_S217F]	0.774	1.7	0.64	1.99	2.31	1.41	2.17	1.75	1.3	1.87	9.08	0.706	1.44	2.61	1.28	0.934
HPAGNYSLSSV [ARFGAP3_Y473_Q468H]	0.79	0.603	0.804	0.425	0.458	0.625	0.666	0.672	0.706	0.49	0.619	0.409	0.867	0.562	0.58	0.553
PVADPYDQSFE [MAPK14_Y323]	0.797	0.971	0.927	0.982	0.896	0.894	1.86	2.29	0.695	1.66	0.759	0.828	2.38	0.941	0.632	0.989
GLQDEYDFKCK [STAT1_Y170_D165G]	0.74	0.559	0.709	0.543	0.555	0.453	1.12	1.18	0.509	1.09	0.467	0.453	0.831	0.626	0.63	0.597
DFPMGYPSYLA [TBCK_Y153_I151M]	0.827	0.572	0.825	0.416	0.473	0.464	0.751	0.663	0.399	0.65	0.362	0.443	0.507	0.412	0.453	0.367
CTLLPYYSARV [DGKE_Y269]	0.889	1.81	0.74	0.579	0.699	0.508	1.04	0.937	0.601	1.03	0.497	0.464	0.735	0.485	0.655	0.604
CASQLCPRHKH [DCTN4_Y263_Y263C]	1.2	1.43	1.19	0.312	0.332	0.358	0.533	0.495	0.305	0.477	0.367	0.366	0.451	0.33	0.393	0.326
LENSTYQYIHV [CRB1_Y760_R764H]	1.06	1.45	1.05	3.15	5.6	7.77	1.68	1.18	11.2	2.84	17.8	3.32	1.01	9.48	5.17	7.21
TWQSMYGCDVG [HLA-B_Y123_L119W]	0.661	0.684	0.899	0.735	0.802	0.6	1.22	1.37	0.933	1.02	0.548	0.531	1.03	0.533	0.63	0.498
AVDMTYDGHPV [FLNB_Y1020_V1018M]	0.662	0.461	0.877	3.61	0.737	0.593	0.926	0.765	1.67	1.19	0.89	3.3	0.768	0.576	4.79	3.87
RRGMPYGGHGD [TGM1_Y312_R315H]	0.764	0.415	0.97	0.434	0.472	0.465	0.653	0.377	0.414	0.572	0.582	0.706	0.357	0.758	0.624	0.52
HRDSSYFWEIE [RAF1_Y340_Q335H_YF]	0.52	0.802	0.856	0.888	0.984	0.628	1.8	2.02	0.59	1.34	0.497	0.579	1.13	1.02	0.629	0.638
CRPPFYHRNCM [HGD_Y334_F329C_YF]	1.4	1.36	1.27	0.901	0.635	0.452	0.776	0.606	0.474	0.913	0.375	0.492	0.58	0.435	0.555	0.48
STEEQYRICQV [EFHC1_Y115_R118C]	0.52	0.367	0.695	0.566	0.848	0.492	1.53	1.08	0.71	1.09	0.598	0.541	0.999	0.599	0.629	0.52
